In FireProtDB (doi:10.1002/pro.2449):

B1: Guanyl-specific ribonuclease T1, P00651 (parent)
chain: MMYSKLLTLTTLLLPTALALPSLVERACDYTCGSNCYSSSDVSTAQAAGYQLHEDGETVGSNSYPHKYNNYEGFDFSVSSPYYEWPILSSGDVYSGGSPGADRVVFNENNQLAGVITHTGASGNNFVECT
B2: Guanyl-specific ribonuclease Sa, P05798 (parent)
chain: DVSGTVCLSALPPEATDTLNLIASDGPFPYSQDGVVFQNRESVLPTQSYGYYHEYTVITPGARTRGTRRIITGEATQEDYYTGDHYATFSLIDQTC

Tests used:
[1] = variants of: B1; details: Aspergillus oryzae (strain ATCC 42149 / RIB 40), pH 7, MOPS, transition: 2, reversible: yes, structure 1YGW, whole UniProt chain shown; for denaturant m value / denaturant midpoint (higher = more stable) / unfolding free energy: 25 °C, Urea; for Tm / change of melting temperature, mutant - wild type (higher = more stable) / ddG of mutation (higher = less stable) / unfolding enthalpy (calorimetric): Thermal, DSC
[2] = variants of: B2; details: Kitasatospora aureofaciens; pH 7; Thermal; DSC; MOPS; transition: 2; reversible: yes; structure 1RGG; whole UniProt chain shown

Variant	denaturant m value [1]	denaturant midpoint (higher = more stable) [1]	unfolding free energy [1]	Tm [1]	change of melting temperature, mutant - wild type (higher = more stable) [1]	ddG of mutation (higher = less stable) [1]	unfolding enthalpy (calorimetric) [1]	change of melting temperature, mutant - wild type (higher = more stable) [2]	ddG of mutation (higher = less stable) [2]	unfolding enthalpy (calorimetric) [2]
T117A	1.25 kcal/mol/M	2.32 M	2.9 kcal/mol	41.9 °C	-10.6 °C	3.2 kcal/mol	98 kcal/mol	–	–	–
T117V	1.24 kcal/mol/M	2.07 M	2.6 kcal/mol	40.7 °C	-11.8 °C	3.6 kcal/mol	95 kcal/mol	–	–	–
T119V	1.2 kcal/mol/M	4.16 M	5 kcal/mol	49.3 °C	-3.2 °C	1 kcal/mol	97 kcal/mol	–	–	–
T119A	0.91 kcal/mol/M	4.46 M	4.1 kcal/mol	50.2 °C	-2.3 °C	0.7 kcal/mol	104 kcal/mol	–	–	–
T117A T119V	1.21 kcal/mol/M	2.35 M	2.9 kcal/mol	41.4 °C	-11 °C	3.4 kcal/mol	90 kcal/mol	–	–	–
T117A T119A	1.21 kcal/mol/M	1.9 M	2.3 kcal/mol	40.5 °C	-12 °C	3.7 kcal/mol	96 kcal/mol	–	–	–
T117V T119V	1.32 kcal/mol/M	2.19 M	2.9 kcal/mol	–	–	–	–	–	–	–
T117V T119A	1.33 kcal/mol/M	1.9 M	2.5 kcal/mol	38.5 °C	-14 °C	4.3 kcal/mol	92 kcal/mol	–	–	–
S31A	–	–	–	–	–	–	–	1.5 °C	-0.4 kcal/mol	91 kcal/mol
S9A	–	–	–	–	–	–	–	-4.5 °C	1.3 kcal/mol	91 kcal/mol
S3A	–	–	–	–	–	–	–	-1.1 °C	0.3 kcal/mol	86 kcal/mol
S42A	–	–	–	–	–	–	–	0.4 °C	-0.1 kcal/mol	92 kcal/mol
S24A	–	–	–	–	–	–	–	-0.7 °C	0.2 kcal/mol	77 kcal/mol
N20A	–	–	–	–	–	–	–	-0.1 °C	0 kcal/mol	89 kcal/mol
S48A	–	–	–	–	–	–	–	1.7 °C	-0.5 kcal/mol	92 kcal/mol
N39A	–	–	–	–	–	–	–	-7.3 °C	2 kcal/mol	66 kcal/mol
T95A	–	–	–	–	–	–	–	-2.1 °C	0.6 kcal/mol	97 kcal/mol
S90A	–	–	–	–	–	–	–	0.7 °C	-0.2 kcal/mol	86 kcal/mol
